For the assay, the target named is antigen- and TRAIL receptor-expressing Colo205 cells. Kind of assay: flow cytometry, Colo205 cells.

We go through two molecules from patent US20180094059A1.

B1: scFvhu225-EHD2-scTRAIL3-… (protein)
chain: DYKDDDDKGGGGSGTEVQLVESGGGLVQPGGSLRLSCAASGFSLTNYGVHWVRQAPGKGLEWLGVIWSGGNTDYNTPFTSRFTISRDNSKNTLYLQMNSLRAEDTAVYYCARALTYYDYEFAYWGQGTTVTVSSGGGGSGGGGSGGGGSDIQLTQSPSFLSASVGDRVTITCRASQSIGTNIHWYQQKPGKAPKLLIKYASESISGVPSRFSGSGSGTEFTLTISSLQPEDFATYYCQQNNNWPTTFGAGTKLEIKRAAAGGSGGDFTPPTVKILQSSCDGGGHFPPTIQLLCLVSGYTPGTINITWLEDGQVMDVDLSTASTTQEGELASTQSELTLSQKHWLSDRTYTCQVTYQGHTFEDSTKKCADSNGGSGGASSGGGPQRVAAHITGTRGRSNTLSSPNSKNEKALGRKINSWESSRSGHSFLSNLHLRNGELVIHEKGFYYIYSQTYFRFQEEIKENTKNDKQMVQYIYKYTSYPDPILLMKSARNSCWSKDAEYGLYSIYQGGIFELKENDRIFVSVTNEHLIDMDHEASFFGAFLVGGGPQRVAAHITGTRGRSNTLSSPNSKNEKALGRKINSWESSRSGHSFLSNLHLRNGELVIHEKGFYYIYSQTYFRFQEEIKENTKNDKQMVQYIYKYTSYPDPILLMKSARNSCWSKDAEYGLYSIYQGGIFELKENDRIFVSVTNEHLIDMDHEASFFGAFLVGGGPQRVAAHITGTRGRSNTLSSPNSKNEKALGRKINSWESSRSGHSFLSNLHLRNGELVIHEKGFYYIYSQTYFRFQEEIKENTKNDKQMVQYIYKYTSYPDPILLMKSARNSCWSKDAEYGLYSIYQGGIFELKENDRIFVSVTNEHLIDMDHEASFFGAFLVG
Regarding B1, the EC50 worked out at 0.58 nM.

B2: dsDb3M6-scTRAIL3-… (protein)
chain: DYKDDDDKGGGGSGTEVQLLESGGGLVQPGGSLRLSCAASGFTFSHYVMAWVRQAPGKCLEWVSSISSSGGWTLYADSVKGRFTISRDNSKNTLYLQMNSLRAEDTAVYYCTRGLKMATIFDYWGQGTLVTVSSGGGGSQSALTQPASVSGSPGQSITISCTGTSSDVGSYNVVSWYQQHPGKAPKLIIYEVSQRPSGVSNRFSGSKSGNTASLTISGLQTEDEADYYCSSYAGSSIFVIFGCGTKVTVLAAAGGSGGGPQRVAAHITGTRGRSNTLSSPNSKNEKALGRKINSWESSRSGHSFLSNLHLRNGELVIHEKGFYYIYSQTYFRFQEEIKENTKNDKQMVQYIYKYTSYPDPILLMKSARNSCWSKDAEYGLYSIYQGGIFELKENDRIFVSVTNEHLIDMDHEASFFGAFLVGGGPQRVAAHITGTRGRSNTLSSPNSKNEKALGRKINSWESSRSGHSFLSNLHLRNGELVIHEKGFYYIYSQTYFRFQEEIKENTKNDKQMVQYIYKYTSYPDPILLMKSARNSCWSKDAEYGLYSIYQGGIFELKENDRIFVSVTNEHLIDMDHEASFFGAFLVGGGPQRVAAHITGTRGRSNTLSSPNSKNEKALGRKINSWESSRSGHSFLSNLHLRNGELVIHEKGFYYIYSQTYFRFQEEIKENTKNDKQMVQYIYKYTSYPDPILLMKSARNSCWSKDAEYGLYSIYQGGIFELKENDRIFVSVTNEHLIDMDHEASFFGAFLVG
On to B2, for which the concentration giving a half-maximal response (EC50) was 32.5 nM.
